From publication PMC2680549

Molecular target: N-terminal domain of Bag2 (Bag2-NTD)
Experiment: SEC

Chain of N-terminal domain of Bag2 (Bag2-NTD) (domain or fragment) (Q91YN9 104-194): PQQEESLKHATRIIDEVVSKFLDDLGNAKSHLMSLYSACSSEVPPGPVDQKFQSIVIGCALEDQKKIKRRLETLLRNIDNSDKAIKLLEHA

- stoichiometry N: 2
Substance: N-terminal domain of Bag2 (Bag2-NTD) (domain or fragment)
